Assay [1] deals with T1, β-arrestin2 (endogenous, RAW 264.7 cells) (mouse, UniProt Q91YI4 1-410).
T1 construct: Endogenous protein in cell lysate; also called βarr2
Nature of the assay: co-IP, RAW 264.7 cells, DHA 30 min (FIG. 3E). On the procedure: (§1) FIG. 3. GPR120 internalization with β-arrestin2 mediates anti-inflammatory effects. (A) RAW 264.7 cells were transfected with siRNA as indicated and stimulated with or without 100 μM of DHA 1 hr prior to LPS (100 ng/ml) treatment for 10 min and then subjected to western blotting. […] (C) Phosphorylation of TAK1 and MKK4 in RAW 264.7 cells with or without siRNA transfection as indicated. (D) HEK 293 cells were co-transfected with HA-GPR120 and β-arrestin2.GFP to analyze GPR120 internalization after DHA stimulation for the indicated times. GPR120 (left column) and β-arrestin2 (middle column) were localized by confocal microscopy. (E) Co-immunoprecipitation between GPR120 and β-arrestin2 with DHA stimulation for 30 min in RAW 264.7 cells and, (F) HEK 293 cells (HA-GPR120 and (β-arrestin2*GFP), respectively. Lysate indicates 1/10 input in each experiment. Interaction between TAB1 and β-arrestin2 (G), and interaction between TAB1 and TAK1 (H) were detected by co-immunoprecipitation and the scanned bar graph quantitates the association in RAW 264.7 cells. (I) Schematic diagram of the β-arrestin2 and GPR120-mediated anti-inflammatory mechanism. The left half of the diagram indicate the DHA-mediated anti-inflammatory effect, and the right half of the diagram indicate the LPS- and TNF-α-induced inflammatory pathway. See also FIG. 9. […]

Assay [2] concerns the target T2, transforming growth factor-β activated kinase 1 (TAK1), endogenous, RAW 264.7 cells (mouse, UniProt Q62073 1-579).
T2 construct: Endogenous protein in cell lysate
T2 sequence (looked up): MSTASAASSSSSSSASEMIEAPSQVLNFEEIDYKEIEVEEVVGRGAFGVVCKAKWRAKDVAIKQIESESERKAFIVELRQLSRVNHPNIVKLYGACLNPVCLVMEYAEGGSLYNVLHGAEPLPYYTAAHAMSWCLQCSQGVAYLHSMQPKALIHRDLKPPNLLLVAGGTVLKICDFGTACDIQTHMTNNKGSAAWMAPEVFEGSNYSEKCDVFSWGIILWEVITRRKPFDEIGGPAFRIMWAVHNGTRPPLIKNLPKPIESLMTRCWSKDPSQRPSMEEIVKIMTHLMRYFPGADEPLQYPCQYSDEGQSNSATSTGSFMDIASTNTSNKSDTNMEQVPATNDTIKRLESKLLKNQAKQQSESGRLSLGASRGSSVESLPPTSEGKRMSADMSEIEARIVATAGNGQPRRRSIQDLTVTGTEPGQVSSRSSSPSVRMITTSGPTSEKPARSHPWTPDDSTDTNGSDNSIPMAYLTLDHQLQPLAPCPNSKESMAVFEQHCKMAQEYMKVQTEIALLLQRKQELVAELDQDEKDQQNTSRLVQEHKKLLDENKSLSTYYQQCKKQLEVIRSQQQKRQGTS
Nature of the assay: co-IP, RAW 264.7 cells (FIG. 3H). The protocol:
as §1

T1 sequence (Q91YI4 whole entry): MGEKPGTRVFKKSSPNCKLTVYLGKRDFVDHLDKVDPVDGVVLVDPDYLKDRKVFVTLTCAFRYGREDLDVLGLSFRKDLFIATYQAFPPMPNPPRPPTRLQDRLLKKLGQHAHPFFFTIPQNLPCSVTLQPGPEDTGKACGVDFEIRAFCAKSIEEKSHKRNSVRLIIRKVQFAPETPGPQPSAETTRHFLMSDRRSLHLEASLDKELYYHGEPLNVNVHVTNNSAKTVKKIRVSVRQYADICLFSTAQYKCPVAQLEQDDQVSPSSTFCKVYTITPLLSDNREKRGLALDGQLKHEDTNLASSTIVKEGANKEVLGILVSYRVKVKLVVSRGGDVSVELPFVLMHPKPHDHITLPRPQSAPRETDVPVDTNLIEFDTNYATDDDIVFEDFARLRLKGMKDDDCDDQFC

B1: GPR120 (endogenous, RAW 264.7 cells) (receptor, mouse, UniProt Q7TMA4 1-361, looked up)
chain: MSPECAQTTGPGPSHTLDQVNRTHFPFFSDVKGDHRLVLSVVETTVLGLIFVVSLLGNVCALVLVARRRRRGATASLVLNLFCADLLFTSAIPLVLVVRWTEAWLLGPVVCHLLFYVMTMSGSVTILTLAAVSLERMVCIVRLRRGLSGPGRRTQAALLAFIWGYSALAALPLCILFRVVPQRLPGGDQEIPICTLDWPNRIGEISWDVFFVTLNFLVPGLVIVISYSKILQITKASRKRLTLSLAYSESHQIRVSQQDYRLFRTLFLLMVSFFIMWSPIIITILLILIQNFRQDLVIWPSLFFWVVAFTFANSALNPILYNMSLFRNEWRKIFCCFFFPEKGAIFTDTSVRRNDLSVISS
notes: whole, on cells; also called ω-3 FA receptor/sensor
Consider B1, for which the binding result in assay [1] is listed as “binds”.

B2: TAK1 binding protein 1 (TAB1), endogenous, RAW 264.7 cells (other, mouse, UniProt Q8CF89 1-502, looked up)
chain: MAAQRRSLLQSEQQPSWTDDLPLCHLSGVGSASNRSYSADGKGTESHPPEDNWLKFRSENNCFLYGVFNGYDGNRVTNFVAQRLSAELLLGQLNTEHTEADVRRVLLQAFDVVERSFLESIDDALAEKASLQSQLPEGVPQHQLPPQYQKILERLKALEREISGGAMAVVAVLLNSKLYVANVGTNRALLCKSTVDGLQVTQLNMDHTTENEDELFRLSQLGLDAGKIKQMGVICGQESTRRIGDYKVKYGYTDIDLLSAAKSKPIIAEPEIHGAQPLDGVTGFLVLMSEGLYKALEAAHGPGQANQEIAAMIDTEFAKQTSLDAVAQAVVDRVKRIHSDTFASGGERAKFCPRHEDMTLLVRNFGYPLGEMSQPTPTPAPGGRVYPVSVPYSSAQSTSKTSVTLSLVMPSQGQMVNGSHSASTLDEATPTLTNQSPTLTLQSTNTHTQSSSSSSDGGLFRSRPAHSLPPGEDGRVEPYVDFAEFYRLWSVDHGEQSVMTAP
notes: Endogenous protein in cell lysate
B2: the binding result in assay [2] was “binds”.

These data come from patent publication US20120295975A1 (University of California, published 2012).
